In patent US9493781B2, “Synthetic brassica-derived chloroplast transit peptides” (DOW AGROSCIENCES LLC, priority 2012, dated 2016):

Assays:
Arabidopsis [1] = test: dgt-28, dgt-32, dgt-33, dgt-3, dgt-7 transformed Arabidopsis (T1, T2, T3) response to postemergence glyphosate, % visual injury; assay type: in vivo, Arabidopsis thaliana; details: 14 days after application
Source text: Transgenic T1 Arabidopsis plants containing the dgt-28 transgene were sprayed with differing rates of glyphosate. Elevated rates were applied in this study to determine the relative levels of resistance (105, 420, 1,680 or 3,360 g ae/ha). A typical 1× usage rate of glyphosate that will control non-transformed Arabidopsis is 420 g ae/ha. […] The T1 Arabidopsis plants that were used in this study were variable copy number for the dgt-28 transgene. The low copy dgt-28 T1 Arabidopsis plants were self-pollinated and used to produce T2 plants.
Results of Glyphosate Selection of Transformed dgt-28 Arabidopsis Plants. The Arabidopsis T1 transformants were first selected from the background of untransformed seed using a glufosinate selection scheme. Three flats or 30,000 seed were analyzed for each T1 construct. The T1 plants selected above were molecularly characterized and representative plants with variable copy number were subsequently transplanted to individual pots and sprayed with various rates of commercial glyphosate as previously described. The response of these plants is presented in terms of % visual injury 2 weeks after treatment (WAT). […] An arithmetic mean and standard deviation is presented for each construct used for Arabidopsis transformation. The range in individual response is also indicated in the last column for each rate and transformation. Wild-type, non-transformed Arabidopsis (c.v. Columbia) served as a glyphosate sensitive control.
T2Arabidopsis Data. The second generation plants (T2) of selected T1 Arabidopsis events which contained low copy numbers of the dgt-28 transgene were further characterized for glyphosate tolerance. Glyphosate was applied as described previously. The response of the plants is presented in terms of % visual injury 2 weeks after treatment (WAT). […] An arithmetic mean and standard deviation are presented for each construct used for Arabidopsis transformation. The range in individual response is also indicated in the last column for each rate and transformation. Wild-type, non-transformed Arabidopsis (cv. Columbia) served as a glyphosate sensitive control. In the T2 generation hemizygous and homozygous plants were available for testing for each event and therefore were included for each rate of glyphosate tested. Hemizygous plants contain two different alleles at a locus as compared to homozygous plants which contain the same two alleles at a locus. Variability of response to glyphosate is expected in the T2 generation as a result of the difference in gene dosage for hemizygous as compared to homozygous plants. The variability in response to glyphosate is reflected in the standard deviation and range of response.
T3 Arabidopsis Data. The third generation plants (T3) of selected T2 Arabidopsis events which contained low copy numbers of the dgt-28 transgene were further characterized for glyphosate tolerance. […] Glyphosate was applied as described previously. The response of the plants is presented in terms of % visual injury 2 weeks after treatment (WAT). […] An arithmetic mean and standard deviation are presented for each construct used for Arabidopsis transformation. The range in individual response is also indicated in the last column for each rate and transformation. Wild-type, non-transformed Arabidopsis (cv. Columbia) served as a glyphosate-sensitive control.

Arabidopsis [2] = test: Heritability progeny test of T1 families (T2 plants) with glufosinate, Arabidopsis; assay type: in vivo, Arabidopsis thaliana; details: progeny test of 100 T2 plants, glufosinate 200 g ae/ha
Source text: Heritability. Confirmed transgenic T1 Arabidopsis events were self-pollinated to produce T2 seed. These seed were progeny tested by applying Ignite™ herbicide containing glufosinate (200 g ae/ha) to 100 random T2 siblings. […] The T1 families (T2 plants) segregated in the anticipated 3 Resistant: 1 Sensitive model for a dominantly inherited single locus with Mendelian inheritance as determined by Chi square analysis (P>0.05). […] Seed were collected from 5 to 15 T2 individuals (T3 seed). Twenty-five T3 siblings from each of 3-4 randomly-selected T2 families were progeny tested as previously described.

[3] = Table 8, T1 Arabidopsis, 105 g ae/ha glyphosate
[4] = Table 8, T1 Arabidopsis, 420 g ae/ha glyphosate
[5] = Table 8, T1 Arabidopsis, 1680 g ae/ha glyphosate
[6] = Table 8, T1 Arabidopsis, 3360 g ae/ha glyphosate
[7] = Table 10, T1 Arabidopsis, 1,680 g ae/ha glyphosate
[8] = Table 12, T2 Arabidopsis, 1 copy, 420 g ae/ha glyphosate
[9] = Table 12, T2 Arabidopsis, 1 copy, 840 g ae/ha glyphosate
[10] = Table 12, T2 Arabidopsis, 1 copy, 1680 g ae/ha glyphosate
[11] = Table 12, T2 Arabidopsis, 1 copy, 3360 g ae/ha glyphosate

B1: pDAB105531: TraP8 v2 -- dgt-28 v5: binary construct TraP8 v2: dgt-28 v5 (SEQ ID NO:34) (nucleic acid)
DNA: ATGGCTCAATCTAGCAGAATCTGCCACGGTGTGCAGAACCCATGTGTGATCATTTCCAATCTCTCCAAATCCAACCAGAACAAATCTCCTTTCTCAGTCAGCCTCAAGACTCACCAGCAGCAGCGTCGTGCTTACCAGATATCTAGCTGGGGATTGAAGAAGTCAAACAACGGGTCCGTGATTCGTCCGGTTAAGGCAGCAAGAGGGATGCCAGCCTTGTCTTTACCTGGATCAAAGAGTATCACAGCTAGGGCACTCTTTCTTGCTGCTGCTGCTGATGGGGTTACTACTTTGGTGAGGCCATTGAGAAGTGACGACACAGAAGGATTCGCTGAGGGGTTAGTTCGTTTAGGCTATCGTGTAGGGAGGACACCCGATACTTGGCAAGTCGATGGCAGACCACAAGGACCAGCAGTGGCTGAGGCTGACGTCTACTGTAGAGACGGAGCAACCACCGCTAGATTCTTGCCAACCTTAGCAGCTGCTGGTCACGGAACATACAGATTTGATGCTTCACCACAGATGAGGAGACGTCCTCTTTTGCCCTTAAGCAGAGCCTTGAGGGATTTGGGTGTCGATCTTAGACACGAAGAAGCTGAAGGTCATCACCCTCTGACTGTCCGTGCTGCTGGGGTTGAAGGAGGAGAGGTTACTTTGGATGCTGGTCAGTCAAGTCAGTATCTCACTGCCTTGTTGCTCCTTGGTCCCCTTACAAGACAAGGACTGAGGATAAGGGTTACTGATTTGGTGTCAGCACCATACGTGGAGATTACGCTTGCAATGATGAGGGCTTTCGGAGTTGAAGTGGCAAGGGAGGGAGATGTGTTCGTTGTTCCACCTGGTGGATATCGTGCAACTACGTATGCTATAGAACCCGACGCAAGTACTGCTTCTTACTTCTTCGCAGCTGCTGCTTTGACTCCTGGAGCTGAAGTGACTGTACCTGGGTTAGGCACGGGAGCACTTCAAGGAGATTTGGGATTTGTAGATGTCTTAAGGAGAATGGGAGCCGAGGTGTCCGTAGGAGCTGATGCAACCACTGTTAGAGGAACTGGTGAATTGCGTGGCCTTACAGCCAACATGAGAGACATAAGTGATACGATGCCGACCCTCGCTGCAATAGCACCCTTTGCTAGTGCTCCAGTTAGAATCGAGGATGTTGCCAACACTCGTGTCAAAGAATGTGACAGACTTGAGGCTTGTGCAGAGAACCTTAGGAGGTTGGGAGTAAGGGTTGCAACGGGTCCGGACTGGATTGAGATACACCCTGGTCCAGCTACTGGTGCTCAAGTCACAAGCTATGGTGATCACAGAATTGTGATGTCATTTGCAGTGACTGGACTTCGTGTGCCTGGGATCAGCTTCGACGACCCTGGCTGTGTTCGTAAGACTTTTCCTGGGTTTCACGAGGCTTTCGCAGAATTGAGGCGTGGCATTGGGAGCTGA
modifications: In-frame fusion of dgt-28 v5 and TraP8 v2
Arabidopsis [1]; [3]
  % Injury Ave: 10.8%
  % Injury Range (%): 0-25%
  No. plants with 20-40% injury: 1
  No. plants with <20% injury: 3
  No. plants with >40% injury: 0
Arabidopsis [1]; [4]
  % Injury Ave: 22.8%
  % Injury Range (%): 8-50%
  No. plants with 20-40% injury: 0
  No. plants with <20% injury: 3
  No. plants with >40% injury: 1
Arabidopsis [1]; [5]
  % Injury Ave: 5.3%
  % Injury Range (%): 0-8%
  No. plants with 20-40% injury: 0
  No. plants with <20% injury: 4
  No. plants with >40% injury: 0
Arabidopsis [1]; [6]
  % Injury Ave: 29.3%
  % Injury Range (%): 22-35%
  No. plants with 20-40% injury: 4
  No. plants with <20% injury: 0
  No. plants with >40% injury: 0
Arabidopsis [1]; [7]
  % Injury Ave: 5.3%
  % Injury Range (%): 0-8%
  No. plants with 20-40% injury: 0
  No. plants with <20% injury: 4
  No. plants with >40% injury: 0
Arabidopsis [1]; [8]
  % Injury Ave: 0.5%
  % Injury Range (%): 0-2%
  No. plants with 20-40% injury: 0
  No. plants with <20% injury: 4
  No. plants with >40% injury: 0
Arabidopsis [1]; [9]
  % Injury Ave: 1.3%
  % Injury Range (%): 0-5%
  No. plants with 20-40% injury: 0
  No. plants with <20% injury: 4
  No. plants with >40% injury: 0
Arabidopsis [1]; [10]
  % Injury Ave: 7.5%
  % Injury Range (%): 5-15%
  No. plants with 20-40% injury: 0
  No. plants with <20% injury: 4
  No. plants with >40% injury: 0
Arabidopsis [1]; [11]
  % Injury Ave: 7.5%
  % Injury Range (%): 0-15%
  No. plants with 20-40% injury: 0
  No. plants with <20% injury: 4
  No. plants with >40% injury: 0
Arabidopsis [2]
  T1 Families Tested Segregating at 1 Locus (%): 100%
